# Patent publication US20260042834A1 (HBM ALPHA THERAPEUTICS, published 2026)
# T1: biotinylated CRH (human and mouse, not fully specified; biotinylated, position not stated)
# T1 construct: also called Biotin-CRH; biotin-labeled CRH
# T1 peptide: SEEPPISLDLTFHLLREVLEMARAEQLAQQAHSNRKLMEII
# Biological target: T1, biotinylated CRH
# Assay: Octet BLI, biotinylated CRH on SA sensor
# Experimental: Octet® Red 96e was used for affinity measurement. Octet® running buffer was prepared by diluting kinetics buffer 10× (Fortebio, Cat #18-1105) in PBS according to the manufacturer's instructions. Two columns of SA sensors (Fortebio, Cat #18-5019) were hydrated in running buffer for 10 mins, one for ligand capturing and the other for reference. Antibodies were 2-fold diluted and added into a 96-well plate. […] After a 60-second baseline step, sensors were dipped into analyte and buffer wells successively, with the association and dissociation time of 180 seconds and 800 seconds, respectively. […] Signals of reference wells and reference sensors were subtracted by selecting “Double reference” before data fitting.
Kd,koff,kon,Binder
0.305 nM,6.75e-05 s⁻¹,222000 M⁻¹ s⁻¹,"PR006145 (antibody, human IgG1, kappa, V domains shown, PTM-removal variant of PR004290) VH: EVQLVESGGVLVQPGGSLRLSCAASGFTFSSYWMTWVRQAPGKGLEWVANIKQEGSEKYYVDSVKGRFTISRDNAKNSLFLQMNSLRAEDTAVYYCARTLIFDYWGQGTLVTVSS VL: DIVMTQSPLSLPVTPGEPASISCRSSQSLLHSTGYSSLEWYLQKPGQSPQLLIYLGSNRASGVPDRFSGSGSGTDFTLKISRVEAEDVGIYYCMQTLQTPITFGQGTRLEIKR"
0.123 nM,4.08e-05 s⁻¹,333000 M⁻¹ s⁻¹,"PR006142 (antibody, human IgG1, kappa, V domains shown, PTM-removal variant of PR004290) VH: EVQLVESGGVLVQPGGSLRLSCAASGFTFSSYWMTWVRQAPGKGLEWVANIKQEGSEKYYVDSVKGRFTISRDNAKNSLFLQMNSLRAEDTAVYYCARTLIFDYWGQGTLVTVSS VL: DIVMTQSPLSLPVTPGEPASISCRSSQSLLHSTGYDSLEWYLQKPGQSPQLLIYLGSNRASGVPDRFSGSGSGTDFTLKISRVEAEDVGIYYCMQTLQTPITFGQGTRLEIKR"
0.0895 nM,4.47e-05 s⁻¹,499000 M⁻¹ s⁻¹,"PR006144 (antibody, human IgG1, kappa, V domains shown, PTM-removal variant of PR004290) VH: EVQLVESGGVLVQPGGSLRLSCAASGFTFSSYWMTWVRQAPGKGLEWVANIKQEGSEKYYVDSVKGRFTISRDNAKNSLFLQMNSLRAEDTAVYYCARTLIFDYWGQGTLVTVSS VL: DIVMTQSPLSLPVTPGEPASISCRSSQSLLHSTGYNPLEWYLQKPGQSPQLLIYLGSNRASGVPDRFSGSGSGTDFTLKISRVEAEDVGIYYCMQTLQTPITFGQGTRLEIKR"
0.0623 nM,2.85e-05 s⁻¹,457000 M⁻¹ s⁻¹,"PR006143 (antibody, human IgG1, kappa, V domains shown, PTM-removal variant of PR004290) VH: EVQLVESGGVLVQPGGSLRLSCAASGFTFSSYWMTWVRQAPGKGLEWVANIKQEGSEKYYVDSVKGRFTISRDNAKNSLFLQMNSLRAEDTAVYYCARTLIFDYWGQGTLVTVSS VL: DIVMTQSPLSLPVTPGEPASISCRSSQSLLHSTGYHSLEWYLQKPGQSPQLLIYLGSNRASGVPDRFSGSGSGTDFTLKISRVEAEDVGIYYCMQTLQTPITFGQGTRLEIKR"

# Further lines, the binder ahead of its results:
Binder,Kd,koff,kon
"PR005656 (antibody, human IgG1, kappa, V domains shown, PTM-removal variant of PR004290) VH: EVQLVESGGVLVQPGGSLRLSCAASGFTFSSYWMTWVRQAPGKGLEWVANIKQEGSEKYYVDSVKGRFTISRDNAKNSLFLQMNSLRAEDTAVYYCARTLIFDYWGQGTLVTVSS VL: DIVMTQSPLSLPVTPGEPASISCRSSQSLLHSTGYNSLEWYLQKPGQSPQLLIYLGSNRASGVPDRFSGSGSGTDFTLKISRVEAEDVGIYYCMQTLQTPITFGQGTRLEIKR",0.0627 nM,4.55e-05 s⁻¹,726000 M⁻¹ s⁻¹
"PR005657 (antibody, human IgG1, kappa, V domains shown, PTM-removal variant of PR004290) VH: EVQLVESGGVLVQPGGSLRLSCAASGFTFSSYWMTWVRQAPGKGLEWVANIKQDASEKYYVDSVKGRFTISRDNAKNSLFLQMNSLRAEDTAVYYCARTLIFDYWGQGTLVTVSS VL: DIVMTQSPLSLPVTPGEPASISCRSSQSLLHSTGYNSLEWYLQKPGQSPQLLIYLGSNRASGVPDRFSGSGSGTDFTLKISRVEAEDVGIYYCMQTLQTPITFGQGTRLEIKR",0.0913 nM,,
"PR005662 (antibody, human IgG1, kappa, V domains shown, PTM-removal variant of PR004290) VH: EVQLVESGGVLVQPGGSLRLSCAASGFTFSSYWMTWVRQAPGKGLEWVANIKQDASEKYYVDSVKGRFTISRDNAKNSLFLQMNSLRAEDTAVYYCARTLIFDYWGQGTLVTVSS VL: DIVMTQSPLSLPVTPGEPASISCRSSQSLLHSTGYQSLEWYLQKPGQSPQLLIYLGSNRASGVPDRFSGSGSGTDFTLKISRVEAEDVGIYYCMQTLQTPITFGQGTRLEIKR",0.209 nM,8.27e-05 s⁻¹,396000 M⁻¹ s⁻¹
"PR005658 (antibody, human IgG1, kappa, V domains shown, PTM-removal variant of PR004290) VH: EVQLVESGGVLVQPGGSLRLSCAASGFTFSSYWMTWVRQAPGKGLEWVANIKQDGSEKYYVDSVKGRFTISRDNAKNSLFLQMNSLRAEDTAVYYCARTLIFDYWGQGTLVTVSS VL: DIVMTQSPLSLPVTPGEPASISCRSSQSLLHSTGYQSLEWYLQKPGQSPQLLIYLGSNRASGVPDRFSGSGSGTDFTLKISRVEAEDVGIYYCMQTLQTPITFGQGTRLEIKR",0.179 nM,9.11e-05 s⁻¹,509000 M⁻¹ s⁻¹
